Data published in patent US20230078330A1, “HUMAN ANTI-DENGUE ANTIBODIES AND METHODS OF USE THEREFOR” (published 2023).

Assays:
[1] = molecular target: DENV3 envelope (E) glycoprotein, wildtype DENV3 (strain not named at the place) (Dengue virus serotype 3)
[2] = molecular target: DENV3 envelope (E) glycoprotein, strain Phillippines/16562/1964 (Dengue virus serotype 3); assay: live-virus capture ELISA
[3] = molecular target: DENV1 envelope (E) glycoprotein, strain Nauru/West Pac/1974 (Dengue virus serotype 1, UniProt P17763); assay: cell-based or functional assay

B1: DENV-419 (antibody, V domains shown)
VH: EMQLQESGPRLVKPSQTLSLTCTVSGGSTSSGGYYWSWFRQYPEKGLEWIGYIFSSVTTYYNPPLKSRVTISVDTSKNQFSLKLSSVTAADTAVYYCARSLHYYQSSGFLYWGRGIPVTVSA
VL: EIVLTQSPATLSLSPGDRATLSCRASQTVGDSLAWYQQKPGQAPRLLIYDVSNRATGIPARFSGSGSGTDFTLTISSLEPEDFAVYYCQQRASFVTFGRGTKVDIK
In the case of B1, the FRNT EC50, Vero-81 [1] is reported as < 0.035 µg/mL and the EC50 [2] is reported as 0.0444 µg/mL.

B2: DENV-144 (antibody, V domains shown)
VH: QVQLQESGPGLVKPSETLSLTCTVSGASISSYSWSWIRQPAGRGLEWLGRIYPSGNTNYSPSLKSRLTMSLDTSKNQFSMKLTSVSAADTAVYYCARDREQWPLYYGMDVWGQGTLVTVSS
VL: EIVLTQSPAILSLSPGDRATLSCRASQSVFTYLAWYQHKPGQAPRLLIYDASNRASGIPARFSGSGSGTDFTLTISSLEPEDFAVYYCQQRTKWPLAFGGGTKVEIK
B2 was tested, and the “FRNT EC50, Vero-81 (WUSTL)” value [3] was 0.329 µg/mL.
